Read-outs that look alike come from different tables or passages of the source.
Experiments:
HPCs [1] = conditions: cited from earlier work
SPCs [2] = test: In situ perfusion of mouse hind limb, CFU-SPC in perfusate; assay type: in vivo, mice; conditions: for SPC mobilization from the bone marrow: FIG. 21d
Experimental: a, overview of procedures set up for identifying the direct mobilization of progenitor cells from the femoral bone marrow. […] 24 hours after the last injection, mice underwent perfusion of the right hind limb. CXCR4 antagonist (AMD3100 0.1 mM, closed bars) or vehicle (PBS, open bars) were then infused directly into the femoral artery for 10 minutes. The hind limb was then perfused for a further 50 minutes to allow collection of b, CFU-HPC; c, CFU-EPC; or d, CFU-SPC; via the femoral vein. CFU-HPC, CFU-EPC, and CFU-SPC are shown as total number of colonies collected in the perfusate. n=5-8 mice per group. Data: means±s.e.m. *: P<0.05, **: P<0.01, ***: P<0.001 between selected groups.
(§4) 24 hours after the last injection, mice were administered a CXCR4 antagonist (AMD3100, 5 mg/kg i.p), KC (30 μg/kg i.v.) or vehicle and blood was collected via cardiac puncture 60 minutes later for enumeration of circulating leukocyte, HPC, EPC, and stromal progenitor cell levels.
(§5) On day 5 following pre-treatment of growth factors, mice were anaesthetized and the femoral artery and vein exposed. The hind limb was isolated by occlusion of the external iliac artery, superficial epigastric and muscular branch. Polyethylene cannulae (Portex, London, UK) were immediately inserted into the femoral artery and vein as previously described (Martin et al., 2003; 2006; Wengner et al., 2008). Perfusion buffer was infused via the arterial cannula and removed from the venous cannula using a Minipuls peristaltic pump (Anachem, Luton, UK). The hind limb was perfused for an initial 2 minutes to remove remaining blood from the vasculature and then perfused for a further 60 min with vehicle alone or the CXCR4 antagonist (AMD3100, 0.1 mM), infused over the first 10 minutes using an infusion/withdrawal pump (Harvard Instruments, U.K.).
(§6) The perfusate was centrifuged and re-suspended in DMEM+20% FBS. In some experiments citrated blood was obtained via cardiac bleed and lysed for red blood cells. Bone marrow and perfusate cytospins, and blood smears were stained using DiffQuik for the enumeration of mononuclear cells, eosinophils, and neutrophils. Bone marrow, perfusate and lysed blood were then used for assays outlined below to enumerate HPCs (CFU-HPC), EPCs (CFU-EPC), SPCs (CFU-F).
(§7) 5×10^5 cells were added to Mesencult media including supplements (Stemcell Technologies). Dishes were incubated for 7 days before media was changed, and then incubated for a further 14 days before the enumeration of SPC colonies (CFU-F).
(§8) The total number of colony forming units mobilized was calculated according to the number of colonies per plate×by the total number of leukocytes mobilized/number of cells seeded.

SPCs [3] = test: Circulating CFU-SPC (CFU-F) in blood; conditions: agent alone (AMD3100 5 mg/kg i.p., blood at 60 min; G-CSF once daily for 4 days), FIG. 20d
Experimental: 24 hours after the last injection, mice were administered a CXCR4 antagonist (AMD3100 5 mg/kg i.p, closed bars) or vehicle (PBS, open bars). 60 minutes later, blood was taken for analysis of circulating: b, CFU-HPC; c, CFU-EPC; and d, CFU-SPC. CFU-HPC, CFU-EPC, and CFU-SPC are shown as number of colonies per ml blood. n=5-8 mice per group. Data: means±s.e.m. *: P<0.05, **: P<0.01, ***: P<0.001 between selected groups.
(§9) Female BALB/c mice were purchased from Harlan (Oxford, United Kingdom). […] 24 hours after the last injection, mice were administered a CXCR4 antagonist (AMD3100, 5 mg/kg i.p), KC (30 μg/kg i.v.) or vehicle and blood was collected via cardiac puncture 60 minutes later for enumeration of circulating leukocyte, HPC, EPC, and stromal progenitor cell levels.
The perfusate was centrifuged and re-suspended in DMEM+20% FBS. In some experiments citrated blood was obtained via cardiac bleed and lysed for red blood cells. Bone marrow and perfusate cytospins, and blood smears were stained using DiffQuik for the enumeration of mononuclear cells, eosinophils, and neutrophils. […]
The total number of colony forming units mobilized was calculated according to the number of colonies per plate×by the total number of leukocytes mobilized/number of cells seeded. […]

HPCs [4] = test: Circulating CFU-HPC in blood; conditions: FIG. 20b
Experimental: a, Experimental protocol. […] 24 hours after the last injection, mice were administered a CXCR4 antagonist (AMD3100 5 mg/kg i.p, closed bars) or vehicle (PBS, open bars). 60 minutes later, blood was taken for analysis of circulating: b, CFU-HPC; c, CFU-EPC; and d, CFU-SPC. CFU-HPC, CFU-EPC, and CFU-SPC are shown as number of colonies per ml blood. n=5-8 mice per group. Data: means±s.e.m. *: P<0.05, **: P<0.01, ***: P<0.001 between selected groups.
as §4
In some experiments citrated blood was obtained via cardiac bleed and lysed for red blood cells. […] Bone marrow, perfusate and lysed blood were then used for assays outlined below to enumerate HPCs (CFU-HPC), EPCs (CFU-EPC), SPCs (CFU-F).
5×10^4 cells were added to Methocult medium (Stem cell technologies) supplemented with specific cytokines and growth factors to enable formation of CFU-HPC. Mobilized cells were incubated for 11 days before quantification.
as §8

EPCs [5] = test: In situ perfusion of mouse hind limb, CFU-EPC in perfusate; assay type: in vivo, mice; conditions: for EPC mobilization from the bone marrow: agent alone (CXCR4 antagonist 0.1 mM infused 10 min; G-CSF or VEGF pre-treatment 4 days), FIG. 21c
[6] = test system: endothelial progenitor cells (EPC); test: Example 1: EPC mobilisation, hind limb bone marrow perfusion and circulating blood, CFU-EPC assay; conditions: for EPC mobilization: perfusate and blood
Experimental: 24 hours after the last injection, mice were administered a CXCR4 antagonist (AMD3100, 5 mg/kg i.p), or vehicle and blood was collected via cardiac puncture 1 hour later for enumeration of circulating leukocyte, HPC, EPC and MSC levels.
On day 5, mice were anaesthetized with urethane (25% 0.2 ml i.p.) and the femoral artery and vein exposed. The hind limb was isolated by occlusion of the external iliac artery, superficial epigastric and muscular branch with 5/0 braided silk suture. Polyethylene cannulae (0.61 mm OD, Portex, London, UK) were immediately inserted into the femoral artery and vein and tied in place with 5/0 braided silk suture. Perfusion buffer (modified Krebs-Ringer bicarbonate buffer) at 37° C. was infused (0.15 ml/min) via the arterial cannula and removed from the venous cannula using a Minipuls peristaltic pump (Anachem, Luton, UK). The hind limb was perfused for an initial 10 minutes to remove remaining blood from the vasculature and then perfused for a further 60 min with vehicle alone or AMD3100, a CXCR4 antagonist (0.1 mM, Sigma UK) infused over the first 10 minutes using an infusion/withdrawal pump (Harvard Instruments, U.K.).
The perfusate was collected and centrifuged and the cell pellet re-suspended in Dulbecco's modified eagles medium (DMEM) with 20% fetal bovine serum (FBS). A total cell count was performed before the perfusate was lysed for red blood cells, re-suspended again in DMEM (20% FBS) and used for assays outlined below to enumerate haematopoietic progenitor cells (CFU-HPC), endothelial progenitor cells (CFU-EPC), and leukocyte populations.
In some experiments blood was taken to enumerate HPCs, EPCs and leukocytes. A total cell count was performed on citrated blood before being lysed for red blood cells and re-suspended in DMEM (20% FBS).
Assay was performed in duplicate. Dishes were incubated for 7 days before media was changed, and then incubated for a further 14 days before the enumeration of late outgrowth endothelial progenitor cells. Early outgrowth endothelial progenitor cells were enumerated on day 5.
In each of the above assays, the total number of colony forming units mobilised is calculated according to the number of colonies per plate×by the total number of leukocytes mobilized/number of cells seeded.
Mice were anaesthetised and the femoral artery and vein was cannulated such that the femoral bone marrow could be perfused (Martin et al, (2006) Br. J. Haem. 134: 326-329). […]
Mice were injected i.p. with the CXCR4 antagonist, AMD3100, (or vehicle control) and 1 h later the mice were killed. Blood was collected by cardiac puncture and stem cell numbers in the blood were determined. […]

[7] = test system: mesenchymal stem cells (MSC); test: Example 1: MSC mobilisation, hind limb bone marrow perfusion and circulating blood, CFU-MSC assay; assay type: in vivo, mice; conditions: perfusate and blood, FIGS. 9-12
Experimental: 4×10^5 cells were added to 3 ml Mesencult media including supplements (05501 and 05502 Stemcell Technologies). Assay was performed in duplicate.

[8] = test system: haematopoietic progenitor cells (HPC); test: Example 1: HPC mobilisation, hind limb bone marrow perfusion and circulating blood, CFU-HPC assay; assay type: in vivo, mice
Experimental: Assay was performed in duplicate Mobilised cells were maintained in semi-solid methylcellulose cultures for 11 days before quantification of the number of CFU-HPCs.

HPCs [9] = test: In situ perfusion of mouse hind limb, CFU-HPC in perfusate; conditions: for HPC mobilization from the bone marrow: FIG. 21b
Experimental: 24 hours after the last injection, mice underwent perfusion of the right hind limb. […] The hind limb was then perfused for a further 50 minutes to allow collection of b, CFU-HPC; c, CFU-EPC; or d, CFU-SPC; via the femoral vein. CFU-HPC, CFU-EPC, and CFU-SPC are shown as total number of colonies collected in the perfusate. n=5-8 mice per group. Data: means±s.e.m. *: P<0.05, **: P<0.01, ***: P<0.001 between selected groups.
Female BALB/c mice were purchased from Harlan (Oxford, United Kingdom).
as §5
The perfusate was centrifuged and re-suspended in DMEM+20% FBS. […] Bone marrow, perfusate and lysed blood were then used for assays outlined below to enumerate HPCs (CFU-HPC), EPCs (CFU-EPC), SPCs (CFU-F).
5×10^4 cells were added to Methocult medium (Stem cell technologies) supplemented with specific cytokines and growth factors to enable formation of CFU-HPC. Mobilized cells were incubated for 11 days before quantification. Further characteristics of CFU-HPC colonies were obtained on day 12, namely the mean number of cells in each colony, and the mean colony area. The mean colony area (mm^2) was determined by image analysis using Scion Image analysis program (NIH). The cell number was determined by diluting colonies grown in Methocult into DMEM (to disperse the methylcellulose) and aspirating the colonies into a single cell suspension before obtaining a cell count.
as §8

EPCs [10] = test: Circulating CFU-EPC in blood; assay type: in vivo, mice; conditions: FIG. 20c
SDF-1α = SDF-1α ELISA on bone marrow supernatants; assay type: in vivo, mice; conditions: treated once daily for 4 days, FIG. 23a
Experimental: (§1) Bone marrow was aspirated on day 5 and harvested cells were used to determine a, SDF-1α levels in bone marrow supernatant as determined by ELISA; b, % of bone marrow Lin^− Sca-1^+ cells expressing CXCR4; and c, % of bone marrow CD34^+ VEGFR2^+ cells expressing CXCR4. Harvested cells were also utilized in the following chemotaxis assays: d, number of HPCs; and e, EPCs undergoing chemotaxis towards 30 nM SDF-1α. Cells taken from bone marrow of mice treated with G-CSF (closed bars) or vehicle (PBS, open bars). f, number of HPCs; and g, EPCs undergoing chemotaxis towards 30 nM SDF-1α.
Supernatant from bone marrow aspirates was analyzed for SDF-1α content as per the recommended protocol for the capture and detection antibody (MAB350 and BAF310 respectively. RnD systems).

EPCs [11] = test: CFU-EPC bone marrow frequency; assay type: in vivo, mice; conditions: treated over 4 days, compared to controls, FIG. 22b
neutrophils = test: Leukocyte counts of bone marrow; assay type: in vivo, mice; conditions: treated 4 days, compared to controls, FIG. 24f
Experimental: 24 hours later these mice underwent perfusion of the right hind limb. CXCR4 antagonist (AMD3100 0.1 mM, closed bars) or vehicle (PBS, open bars) were then infused directly into the femoral artery for 10 minutes. The hind limb was then perfused for a further 50 minutes to allow collection of a, neutrophils via the femoral vein. […] The hind limb was again perfused for a further 50 minutes to allow b, collection of neutrophils.
The perfusate was centrifuged and re-suspended in DMEM+20% FBS. […] Bone marrow and perfusate cytospins, and blood smears were stained using DiffQuik for the enumeration of mononuclear cells, eosinophils, and neutrophils.

CD34^+ VEGFR2^+ EPCs = test: PI staining, cell cycle status of CD34+ VEGFR2+ EPCs; assay type: in vivo, mice; conditions: treated 4 days, FIG. 25d
Experimental: (§2) For flow cytometric analysis, cells were re-suspended in FACS buffer. To identify neutrophils in the bone marrow, surface expression of the granulocyte marker Ly-6G/Ly6C (Gr-1) was determined. Neutrophils were identified as Gr-1^high positive cells with a characteristic high side scatter profile. HPCs residing in the BM were selected as being negative for lineage (Lin^−) markers: CD3e, CD11b, CD45R, Ly-76, and Gr-1 and positive for Sca-1 (Lin^− Sca-1^+ cells) (Gerber et al., 2002; Uchida, et al., 1997). EPCs residing in the BM were selected as being positive for both CD34 and VEGFR2 (CD34^+ VEGFR2^+ cells) (Asahara et al., 1997; Yoon et al., 2005). […] Samples were then washed and then quantified on a FACSAria cell sorter (BD Biosciences, Oxford, United Kingdom) and analysed using FACSDiva software.
(§3) Lin^− Sca-1^+ cells and CD34^+ VEGFR2^+ cells were analysed to determine their cell cycling status using a propidium iodide (PI) stain. […] A dotplot of PI-Width against PI-Area was recorded. Aggregates of cells were detected as cells having a larger PI-W profile and were not included in the gate. […] To calculate the percentage of cells undergoing active cell cycling, a marker was set to exclude the G0/G1 peak and the percentage of cells in S/G2/M was calculated.

CXCR4 = test: Flow cytometry of CXCR4 expression on bone marrow HPCs and EPCs; assay type: in vivo, mice; conditions: treated 4 days
Experimental: as §1
For flow cytometric analysis, cells were re-suspended in FACS buffer. To identify neutrophils in the bone marrow, surface expression of the granulocyte marker Ly-6G/Ly6C (Gr-1) was determined. Neutrophils were identified as Gr-1^high positive cells with a characteristic high side scatter profile. HPCs residing in the BM were selected as being negative for lineage (Lin^−) markers: CD3e, CD11b, CD45R, Ly-76, and Gr-1 and positive for Sca-1 (Lin^− Sca-1^+ cells) (Gerber et al., 2002; Uchida, et al., 1997). EPCs residing in the BM were selected as being positive for both CD34 and VEGFR2 (CD34^+ VEGFR2^+ cells) (Asahara et al., 1997; Yoon et al., 2005). Furthermore, neutrophils were stained for the surface expression of CXCR2, whilst Lin^− Sca-1^+ cells and CD34^+ VEGFR2^+ cells were stained for the cell surface expression of CXCR4. Samples were then washed and then quantified on a FACSAria cell sorter (BD Biosciences, Oxford, United Kingdom) and analysed using FACSDiva software.

[12] = Total number of cells in the femurs; assay type: in vivo; conditions: treated over 4 days; not significantly different compared to control mice
Experimental: (§10) 24 hours after the last injection, bone marrow was aspirated for the enumeration of a, CFU-HPC bone marrow frequency; b, CFU-EPC bone marrow frequency; and c, CFU-SPC bone marrow frequency.
as §4, §6

HPCs [13] = test: In vitro chemotaxis of bone marrow HPCs towards SDF-1α; assay type: cell-based; conditions: bone marrow cells of mice treated 4 days; 30 nM SDF-1α, FIG. 23d, 23f
Experimental: as §1

SPCs [14] = test: CFU-SPC bone marrow frequency; assay type: in vivo, mice; conditions: treated over 4 days, compared to controls, FIG. 22c
Experimental: as §10, §9, §6, §7

Lin^− Sca-1^+ HPCs = test: PI staining, cell cycle status of Lin- Sca-1+ HPCs; assay type: in vivo, mice; conditions: treated 4 days, FIG. 25c
Experimental: as §2, §3

EPCs [15] = test: In vitro chemotaxis of bone marrow EPCs towards SDF-1α; assay type: cell-based; conditions: bone marrow cells of mice treated 4 days; 30 nM SDF-1α, FIG. 23e, 23g
Experimental: as §1

HPCs and MSCs = conditions: Ripa et al. (2007) Circulation 116; cited from earlier work
[16] = agent alone (CXCR4 antagonist 0.1 mM infused 10 min; G-CSF or VEGF pre-treatment 4 days)
[17] = agent alone (AMD3100 5 mg/kg i.p., blood at 60 min; G-CSF or VEGF once daily for 4 days)
[18] = agent alone (CXCR4 antagonist 0.1 mM infused 10 min; G-CSF or VEGF pre-treatment 4 days), perfusate over 1 hour
[19] = growth factor pre-treatment 4 days, then CXCR4 antagonist infused

Molecule: c1cc(CN2CCCNCCNCCCNCC2)ccc1CN1CCCNCCNCCCNCC1 [AMD3100, reference compound]
- circulating numbers of HPCs (HPCs [1]; AMD3100 alone, mice and humans): stimulates a rapid rise in circulating numbers of HPCs in both mice and humans
- SPC mobilization from the bone marrow (SPCs [2]; [16]): HPCs and EPCs, but not SPCs were mobilized
- circulating SPCs (SPCs [3]): SPCs were not detected in the blood
- circulating numbers of HPCs (HPCs [4]; [17]): increased circulating numbers of HPCs and EPCs
- EPC mobilization from the bone marrow (EPCs [5]): HPCs and EPCs, but not SPCs were mobilized
- EPCs mobilised (number) ([6]; AMD3100 alone, 0.1 mM infused into hind limb, perfusate, FIG. 5): ~400
- EPC mobilization ([6]; agent alone, FIGS. 5 and 6): stimulates the mobilization of EPCs
- MSC mobilization ([7]; agent alone): does not mobilize MSCs
- HPCs mobilised (number) ([8]; AMD3100 alone, 0.1 mM infused into hind limb, perfusate, FIG. 3): about 4000
- HPC mobilization from the bone marrow (HPCs [9]; [18]): HPCs and EPCs, but not SPCs were mobilized
- circulating numbers of EPCs (EPCs [10]; [17]): increased circulating numbers of HPCs and EPCs

B1: G-CSF: Granulocyte-colony stimulating factor, recombinant murine cytokine from PeproTech (protein, UniProt P09920 31-208, looked up)
Granulocyte …: VPLVTVSALPPSLPLPRSFLLKSLEQVRKIQASGSVLLEQLCATYKLCHPEELVLLGHSLGIPKASLSGCSSQALQQTQCLSQLHSGLCLYQGLLQALSGISPALAPTLDLLQLDVANFATTIWQQMENLGVAPTVQPTQSAMPAFTSAFQRRAGGVLAISYLQGFLETARLALHHLA
- SDF-1α levels in bone marrow supernatant (SDF-1α): significant reduction in levels of SDF-1α
- frequency/number of EPCs in the bone marrow (EPCs [11]): significant reduction in the number of bone marrow EPCs
- HPC mobilization (HPCs [1]; chronic G-CSF treatment combined with acute treatment with AMD3100): synergistic effect
- SPC mobilization from the bone marrow (SPCs [2]; [16]): did not lead to the mobilization of SPCs
- SPC mobilization, acute administration (SPCs [2]; growth factor (50 nM) infused acutely, alone or in combination with CXCR4 antagonist, FIG. 31c): neither growth factor, when administered acutely or in combination with the CXCR4 antagonist led to mobilization of SPCs
- SPC mobilization from the bone marrow (SPCs [2]; [19]): no SPCs were mobilized
- numbers of neutrophils in the bone marrow (neutrophils): increased numbers of neutrophils in the bone marrow
- circulating SPCs (SPCs [3]): no SPCs were detected
- circulating numbers of HPCs (HPCs [4]; [17]): increased circulating numbers of HPCs
- circulating numbers of HPCs (HPCs [4]; growth factor pre-treatment over 4 days, then CXCR4 antagonist AMD3100 5 mg/kg i.p., blood at 60 min): synergistically enhanced circulating numbers of HPCs
- EPC mobilization from the bone marrow (EPCs [5]): enhanced the basal rate of HPC and EPC egress from the bone marrow
- EPC mobilization, acute administration (EPCs [5]; growth factor (50 nM) infused into femoral artery for 10 minutes, alone, FIG. 31b): mobilized both HPCs and EPCs
- percentage of CD34+ VEGFR2+ EPCs in S/G2/M phase of the cell-cycle (CD34^+ VEGFR2^+ EPCs): does not stimulate entry
- EPC mobilization ([6]; G-CSF or VEGF 2.5 μg on 4 consecutive days, then AMD3100, FIGS. 5-8): not enhanced
- CXCR4 expression on EPCs (CXCR4; CD34+ VEGFR2+ bone marrow cells, FIG. 23c): the expression of CXCR4 on EPCs was unchanged
- CXCR4 expression on HPCs (CXCR4; Lin- Sca-1+ bone marrow cells, FIG. 23b): significant reduction
- total number of cells in the femurs [12]: 1.41±0.28×10^7 cells/femur
- HPC chemotaxis towards SDF-1α (HPCs [13]): further increased migration of HPCs and EPCs to SDF-1α
- frequency/number of SPCs in the bone marrow (SPCs [14]): an increase in the number of SPCs
- percentage of Lin- Sca-1+ HPCs in S/G2/M phase of the cell-cycle (Lin^− Sca-1^+ HPCs): does not stimulate entry
- EPC chemotaxis towards SDF-1α (EPCs [15]): further increased migration of HPCs and EPCs to SDF-1α
- MSC mobilization ([7]; G-CSF or VEGF 2.5 μg on 4 consecutive days, then AMD3100): does not mobilize MSCs
- MSC mobilization ([7]; agent alone): does not mobilize MSCs
- HPC mobilization ([8]; G-CSF or VEGF 2.5 μg on 4 consecutive days, then AMD3100 (0.1 mM infusion or 5 mg/kg i.p.), perfusate and blood, FIGS. 1-4): acts synergistically with AMD3100 to mobilize HPCs
- stem cell mobilisation (HPCs and MSCs): mobilises HPCs but causes a decrease in MSCs
- HPC mobilization from the bone marrow (HPCs [9]; [18]): enhanced the basal rate of HPC and EPC egress from the bone marrow
- HPC mobilization, acute administration (HPCs [9]; growth factor (50 nM) infused into femoral artery for 10 minutes, alone, FIG. 31a): mobilized both HPCs and EPCs
- HPC mobilization from the bone marrow (HPCs [9]; [19]): synergistic mobilization of HPCs
- circulating numbers of EPCs (EPCs [10]; growth factor pre-treatment over 4 days, then CXCR4 antagonist AMD3100 5 mg/kg i.p.): no such synergism (or even additive effect) was apparent for EPC mobilization

— patent publication US8440199B2, “Methods for mobilizing mesenchymal stem cells in a patient” (Imperial Innovations Limited, priority 2007, dated 2013)
